Measurements: article PMC7846277

Biological target: microtubules grown from purified bovine brain tubulin (bovine) (UniProt Q6B856)
Assay: laser trap (optical trap) rupture force assay; kinetochore particles on anti-His5 beads (7.5 nM Dsn1-His-Flag), placed at the ends of microtubules growing from coverslip-anchored seeds; BRB80 growth buffer with 1 mM GTP, 1.5 mg/mL tubulin; force ramp 0.25 pN/s; 23°C

Chain of UniProt Q6B856 (Q6B856 whole entry, looked up): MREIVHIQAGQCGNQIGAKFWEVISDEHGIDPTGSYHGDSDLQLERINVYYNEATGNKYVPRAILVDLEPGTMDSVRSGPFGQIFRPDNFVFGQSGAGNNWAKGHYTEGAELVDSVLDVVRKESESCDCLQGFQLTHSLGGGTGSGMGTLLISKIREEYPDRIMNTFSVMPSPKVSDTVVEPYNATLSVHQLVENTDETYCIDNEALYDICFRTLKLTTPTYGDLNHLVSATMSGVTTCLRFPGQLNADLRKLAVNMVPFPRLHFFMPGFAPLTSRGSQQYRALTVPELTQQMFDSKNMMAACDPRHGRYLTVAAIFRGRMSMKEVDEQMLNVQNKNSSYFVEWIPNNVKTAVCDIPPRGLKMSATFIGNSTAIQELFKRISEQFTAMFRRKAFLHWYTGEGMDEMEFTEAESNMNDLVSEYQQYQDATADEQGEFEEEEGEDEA

| mean rupture force [pN] | Substance |
| --- | --- |
| 9 | Wild-type kinetochore particles from mitotic metaphase cells (from UniProt P40568 1-576) (complex) |
| 12 | Wild-type meiotic metaphase I kinetochore particles (from UniProt P40568 1-576) (complex) |
